Source: article PMC10397247
Each block holds one binder with its values, some of them ahead of it.

Assays:
4H1392-AA = target: T1, 4H1392-AA; test: two-hybrid library CCmax;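 further: natural log of median RNA to DNA barcode read ratio; higher means stronger binding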
T1 chain: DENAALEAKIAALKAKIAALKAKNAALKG

4H2622-AA = target: T2, 4H2622-AA; test: two-hybrid library CCmax; conditions: mean of both orientations;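 further: natural log of median RNA to DNA barcode read ratio; higher means stronger binding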
T2 chain: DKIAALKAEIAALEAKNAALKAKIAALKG

4H2705-AA = target: T3, 4H2705-AA; test: two-hybrid library CCmax; conditions: mean of both orientations;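 further: natural log of median RNA to DNA barcode read ratio; higher means stronger binding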
T3 chain: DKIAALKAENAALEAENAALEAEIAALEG

4H2736-AA = target: T4, 4H2736-AA; test: two-hybrid library CCmax; conditions: mean of both orientations;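 further: natural log of median RNA to DNA barcode read ratio; higher means stronger binding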
T4 chain: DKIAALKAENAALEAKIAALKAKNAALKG

4H2888-AA = target: T5, 4H2888-AA; test: two-hybrid library CCmax; conditions: mean of both orientations
T5 chain: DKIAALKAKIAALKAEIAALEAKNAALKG

4H3049-AA = target: T6, 4H3049-AA; test: two-hybrid library CCmax; conditions: mean of both orientations
T6 chain: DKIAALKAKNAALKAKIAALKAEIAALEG

4H3129-AA = target: T7, 4H3129-AA; test: two-hybrid library CCmax
T7 chain: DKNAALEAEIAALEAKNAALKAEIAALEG

4H337-AA = target: T8, 4H337-AA; test: two-hybrid library CCmax; conditions: mean of both orientations
T8 chain: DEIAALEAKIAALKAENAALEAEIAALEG

4H3587-AA = target: T9, 4H3587-AA; test: two-hybrid library CCmax; conditions: mean of both orientations
T9 chain: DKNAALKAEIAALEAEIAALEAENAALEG

4H3590-AA = target: T10, 4H3590-AA; test: two-hybrid library CCmax; conditions: mean of both orientations
T10 chain: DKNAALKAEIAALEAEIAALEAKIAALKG

4H3625-AA = target: T11, 4H3625-AA; test: two-hybrid library CCmax; conditions: mean of both orientations
T11 chain: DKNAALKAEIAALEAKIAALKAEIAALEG

4H384-AA = target: T12, 4H384-AA; test: two-hybrid library CCmax; conditions: mean of both orientations
T12 chain: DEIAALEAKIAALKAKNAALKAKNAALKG

4H3905-AA = target: T13, 4H3905-AA; test: two-hybrid library CCmax; conditions: mean of both orientations
T13 chain: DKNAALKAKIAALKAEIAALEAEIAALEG

4H4038-AA = target: T14, 4H4038-AA; test: two-hybrid library CCmax; conditions: mean of both orientations
T14 chain: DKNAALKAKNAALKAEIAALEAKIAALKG

4H43-AA = target: T15, 4H43-AA; test: two-hybrid library CCmax; conditions: mean of both orientations
T15 chain: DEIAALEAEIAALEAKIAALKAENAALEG

4H451-AA = target: T16, 4H451-AA; test: two-hybrid library CCmax; conditions: mean of both orientations
T16 chain: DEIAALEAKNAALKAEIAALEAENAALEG

4H510-AA = target: T17, 4H510-AA; test: two-hybrid library CCmax; conditions: mean of both orientations
T17 chain: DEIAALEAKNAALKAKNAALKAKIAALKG

4H_APH = target: T18, 4H_APH; test: two-hybrid library CCmax; conditions: mean of both orientations
T18 chain: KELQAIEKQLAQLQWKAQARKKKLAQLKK

4H_BCR = target: T19, 4H_BCR; test: two-hybrid library CCmax; conditions: mean of both orientations
T19 chain: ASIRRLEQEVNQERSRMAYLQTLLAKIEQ

4H_GCN4 = test: two-hybrid library CCmax
GCN2_T = test: two-hybrid library CCmax
O11-AA = target: T20, O11-AA; test: two-hybrid library CCmax; conditions: mean of both orientations
T20 chain: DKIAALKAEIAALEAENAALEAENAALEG

O13-AA = target: T21, O13-AA; test: two-hybrid library CCmax; conditions: mean of both orientations
T21 chain: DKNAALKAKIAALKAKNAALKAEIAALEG

O14-AA = target: T22, O14-AA; test: two-hybrid library CCmax; conditions: mean of both orientations
T22 chain: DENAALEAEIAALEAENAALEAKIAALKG

4H3601-bN = target: T23, 4H3601-bN; test: two-hybrid library CCNG1
T23 chain: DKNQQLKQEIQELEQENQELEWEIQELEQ

4H3907-bN = target: T24, 4H3907-bN; test: two-hybrid library CCNG1
T24 chain: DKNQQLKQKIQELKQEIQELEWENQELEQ

4H4038-bN = target: T25, 4H4038-bN; test: two-hybrid library CCNG1
T25 chain: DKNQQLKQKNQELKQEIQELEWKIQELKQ

4H3070-bA = target: T26, 4H3070-bA; test: two-hybrid library CCNG1; conditions: mean of both orientations
T26 chain: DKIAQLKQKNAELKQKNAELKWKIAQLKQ

4H342-bA = target: T27, 4H342-bA; test: two-hybrid library CCNG1
T27 chain: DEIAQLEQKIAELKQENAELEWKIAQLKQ

4H3632-bA = target: T28, 4H3632-bA; test: two-hybrid library CCNG1
T28 chain: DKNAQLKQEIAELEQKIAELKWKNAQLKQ

4H496-bA = target: T29, 4H496-bA; test: two-hybrid library CCNG1
T29 chain: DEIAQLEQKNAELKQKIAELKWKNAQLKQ

4H883-bA = target: T30, 4H883-bA; test: two-hybrid library CCNG1
T30 chain: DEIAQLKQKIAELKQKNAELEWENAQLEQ

4H_GCN4, sequence (chain, as listed by the source): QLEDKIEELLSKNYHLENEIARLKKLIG

interaction score (4H1392-AA): -0.666
interaction score (4H2622-AA): -1.4
interaction score (4H2705-AA): -1.59
interaction score (4H2736-AA): -1.42
interaction score (4H2888-AA): -0.448
interaction score (4H3049-AA): -0.0185
interaction score (4H3129-AA): -1.07
interaction score (4H337-AA): -0.783
interaction score (4H3587-AA): 2.24
interaction score (4H3590-AA): 1.89
interaction score (4H3625-AA): -0.223
interaction score (4H384-AA): -1.28
interaction score (4H3905-AA): 0.91
interaction score (4H4038-AA): 0.56
interaction score (4H43-AA): 1.25
interaction score (4H451-AA): -0.924
interaction score (4H510-AA): -1.62
interaction score (4H_APH): -1.59
interaction score (4H_BCR): -2.2
interaction score (4H_GCN4): -1.48
interaction score (GCN2_T): -1.63
interaction score (O11-AA): 1.25
interaction score (O13-AA): -1.99
interaction score (O14-AA): 0.474
Binder: DENAALEAKIAALKAKIAALKAKNAALKG [4H1392-AA]

interaction score (4H3601-bN): -1.57
interaction score (4H3907-bN): -1.37
interaction score (4H4038-bN): -1.28
Binder: DKNQQLKQEIQELEQENQELEWEIQELEQ [4H3601-bN]

interaction score (4H3070-bA): -0.355
interaction score (4H342-bA): 1.46
interaction score (4H3632-bA): -1.37
interaction score (4H496-bA): -1.47
interaction score (4H883-bA): 0.052
Binder: DKIAQLKQKNAELKQKNAELKWKIAQLKQ [4H3070-bA]
